Assays:
PCP-consensus VPg = test system: T1, PCP-consensus VPg
T1 sequence: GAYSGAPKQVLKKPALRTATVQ

## Coxsackie virus A25 polymerase (CVA Pol3D)
PCP-consensus VPg
  uridylylation of VPg by Pol3D: both the PV-Pol3D and that of CVA uridylylated the PCP-consensus VPg as well or better than the one encoded in their respective genomes
CVA24 VPg
  uridylylation of VPg by Pol3D: uridylylated the PCP-consensus VPg as well or better than the one encoded in their respective genomes

— US20130071418
